# Source: article PMC6376114, “The Y. bercovieri Anbu crystal structure sheds light on the evolution of highly (pseudo)symmetric multimers” (Journal of molecular biology, 2017)
# “And” between values parts separate entries of the source, which are not always exact repeats. Equal entries are not always repeated.
# Assays:
# [1] = molecular target: ATP-grasp protein encoded in the Y. bercovieri Anbu operon, N-terminally His-tagged (Yersinia bercovieri); test: AUC; sedimentation equilibrium of YbATP-grasp at 4000, 7000 and 9000 rpm, buffer D in the reference sector, global fit (SEDPHAT)
# YbATP-grasp [2] = molecular target: T1, YbATP-grasp (Yersinia bercovieri, UniProt A0ABP2E091); test: […]-orthophosphate release, thin-layer chromatography and autoradiography; type: biochemical; settings: 50 mM Tris pH 7.5, 150 mM KCl, 5 mM MgCl2, 1 mM ATP, RT; labelled compound
# T1 construct: gene yberc0001_40; N-terminally His-tagged (pQLinkH), E. coli ER2566 host; 780 kDa, 14-mer by sedimentation equilibrium; gene from the four-gene Anbu operon (ATP-grasp, alphaE, transglutaminase, Anbu)
# T1 sequence (A0ABP2E091 1-478): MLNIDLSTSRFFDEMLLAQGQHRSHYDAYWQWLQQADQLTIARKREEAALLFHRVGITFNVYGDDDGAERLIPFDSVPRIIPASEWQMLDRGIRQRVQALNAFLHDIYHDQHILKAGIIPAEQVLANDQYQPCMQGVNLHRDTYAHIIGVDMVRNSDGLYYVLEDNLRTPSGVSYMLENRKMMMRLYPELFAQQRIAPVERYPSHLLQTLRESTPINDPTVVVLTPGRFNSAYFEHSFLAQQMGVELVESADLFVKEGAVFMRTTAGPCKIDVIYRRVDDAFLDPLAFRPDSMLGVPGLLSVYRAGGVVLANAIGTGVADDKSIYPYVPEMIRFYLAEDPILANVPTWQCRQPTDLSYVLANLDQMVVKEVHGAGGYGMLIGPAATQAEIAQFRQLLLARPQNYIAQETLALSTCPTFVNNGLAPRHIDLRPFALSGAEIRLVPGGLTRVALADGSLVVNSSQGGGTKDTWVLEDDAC
# YbATP-grasp [3] = molecular target: T1, YbATP-grasp; test: differential scanning fluorimetry (thermofluor); type: binding; settings: strong destabilization in presence of ATP; shift size not given
# [4] = molecular target: Yersinia bercovieri Anbu (ancestral beta subunit), V14A/G107H variant (Yersinia bercovieri); test: AUC; sedimentation velocity, 40,000 rpm, 20 °C, buffer D, continuous c(s) distribution model (SEDFIT)
# [5] = molecular target: Yersinia bercovieri Anbu (ancestral beta subunit), V14A/G107H variant (Yersinia bercovieri); test: AUC; sedimentation equilibrium of YbAnbu at 4000, 7000 and 9000 rpm, buffer B in the reference sector, global fit (SEDPHAT)
# [6] = molecular target: Yersinia bercovieri Anbu (ancestral beta subunit), V14A/G107H variant (Yersinia bercovieri); test: SEC; Superose 6 30/100 column, 0.5 ml/min, buffer D (50 mM Tris pH 7.5, 300 NaCl, 1 mM EDTA); calibrated with BioRad standards, yeast 20S and EcHslV
# [7] = molecular target: Yersinia bercovieri Anbu (ancestral beta subunit), V14A/G107H variant (Yersinia bercovieri); test: crystal structure; sitting drop vapor diffusion, 100 mM BIS-TRIS propane/HCl pH 6.7-7.1, 200 mM Na2SO4, 18% PEG 3350, 7.5% ethylene glycol; space group P21, 2.5 Å, two 14-mers in the asymmetric unit
compound,measurement,setting,value
"ATP-grasp protein encoded in the Y. bercovieri Anbu operon, N-terminally His-tagged (natural protein)",stoichiometry N,[1],14
Nc1ncnc2c1ncn2[C@@H]1O[C@H](COP(=O)(O)OP(=O)(O)OP(=O)(O)O)[C@@H](O)[C@H]1O [ATP],"32P-orthophosphate release, thin-layer chromatography and autoradiography",YbATP-grasp [2],The YbATP-grasp protein led to robust production of orthophosphate
same,differential scanning fluorimetry (thermofluor),YbATP-grasp [3],"indicated strong destabilization of YbATP-grasp in the presence of ATP, but not ADP"
"Yersinia bercovieri Anbu (ancestral beta subunit), V14A/G107H variant (natural protein)",stoichiometry N,[4],12
same,stoichiometry N,[5],14
same,stoichiometry N,[6],9 and 5 and 14
same,stoichiometry N,[7],14
